The source of these data is PMC12745498, “Streptococcus pneumoniae HtrA is a dynamic and monomeric virulence factor capable of forming larger oligomeric complexes” (Protein Science : A Publication of the Protein Society, 2025).

T1: S. pneumoniae HtrA protease domain (PD, residues 59-285) (Streptococcus pneumoniae, UniProt A0A0H2ZQD7 59-285)
T1 construct: HtrA serine protease of Streptococcus pneumoniae, protease domain alone, residues 59-285; 15N-labeled where it is the observed partner of an NMR titration; also called HtrA PD; PD WT; source: E. coli BL21(DE3), purified (Ni column, preparative sizing column)
T1 sequence: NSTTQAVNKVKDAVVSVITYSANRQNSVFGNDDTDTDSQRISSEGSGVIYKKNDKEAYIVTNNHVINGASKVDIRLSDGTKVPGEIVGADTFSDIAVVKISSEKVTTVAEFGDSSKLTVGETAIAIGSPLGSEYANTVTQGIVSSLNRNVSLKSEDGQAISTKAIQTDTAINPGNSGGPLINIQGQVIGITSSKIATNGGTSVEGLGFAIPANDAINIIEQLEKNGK

B1: S. pneumoniae HtrA PDZ domain (residues 285-393) (domain or fragment, Streptococcus pneumoniae, UniProt A0A0H2ZQD7 285-393, looked up)
chain: KVTRPALGIQMVNLSNVSTSDIRRLNIPSNVTSGVIVRSVQSNMPANGHLEKYDVITKVDDKEIASSTDLQSALYNHSIGDTIKITYYRNGKEETTSIKLNKSSGDLES
notes: HtrA serine protease of Streptococcus pneumoniae, PDZ domain alone, residues 285-393 (the methods print 285-493); cloned downstream of human SUMO1 to give the PDZ with no overhang; source: E. coli BL21(DE3), purified (Ni column, ULP1 cleavage, Ni column, preparative sizing column); not shown: 6xHis, N-terminal, cleaved; hSUMO1, N-terminal, cleaved
B2: β-casein residues 21-70 (domain or fragment, bovine, UniProt P02666 21-70, looked up)
chain: LNVPGEIVESLSSSEESITRINKKIEKFQSEEQQQTEDELQDKIHPFAQT
modifications: ends and bridges not checked
notes: bovine β-casein, residues 21-70; also called N-terminal segment (21-70); source: recombinantly produced in-house with the hSUMO1 system (as for the HtrA PDZ)
B3: S. pneumoniae HtrA S234A full ectodomain (residues 59-393) (enzyme)
chain: NSTTQAVNKVKDAVVSVITYSANRQNSVFGNDDTDTDSQRISSEGSGVIYKKNDKEAYIVTNNHVINGASKVDIRLSDGTKVPGEIVGADTFSDIAVVKISSEKVTTVAEFGDSSKLTVGETAIAIGSPLGSEYANTVTQGIVSSLNRNVSLKSEDGQAISTKAIQTDTAINPGNAGGPLINIQGQVIGITSSKIATNGGTSVEGLGFAIPANDAINIIEQLEKNGKVTRPALGIQMVNLSNVSTSDIRRLNIPSNVTSGVIVRSVQSNMPANGHLEKYDVITKVDDKEIASSTDLQSALYNHSIGDTIKITYYRNGKEETTSIKLNKSSGDLES
notes: HtrA serine protease of Streptococcus pneumoniae, full ectodomain, residues 59-393, catalytic serine changed to alanine; the mutant's own cloning is not described; also called full HtrA S234A ectodomain; catalytic mutant; source: E. coli, purified (monomer and hexamer separated by size-exclusion chromatography)

Data set [1] deals with T1, S. pneumoniae HtrA protease domain (PD, …). In words: NMR titration; 500 μM 15N-labeled PDZ titrated with unlabeled PD (0.5-4 mM); 15N-HSQC at 900 MHz, 35°C; 50 mM sodium phosphate pH 6, 50 mM NaCl; global fit of CSPs, single-site model. The note with it: both partners purified.
Data set [2] shares this target. In words: NMR titration; 500 μM 15N-labeled PD titrated with unlabeled PDZ (0.25-4 mM); 15N-HSQC at 900 MHz, 35°C; 50 mM sodium phosphate pH 6, 50 mM NaCl; global fit of CSPs, single-site model. The note with it: both partners purified.
Data set [3] concerns the target B1. Briefly: NMR titration; 250 μM 15N-labeled HtrA PDZ titrated with recombinant β-casein fragments (final 400 μM); 15N-HSQC, global fit of CSPs. The note with it: both partners purified.
Data set [4] concerns the molecule itself. In words: SEC; size-exclusion chromatography of HtrA WT, HtrA S234A, β-casein and a mixture of HtrA S234A with excess β-casein. (Size exclusion chromatography separates by hydrodynamic size, large species first.)

Ends that are not written are not given here.

Regarding B1, the Kd (in general, a measure of binding affinity in units of concentration) in data set [1] was 1000 ± 500 µM; in data set [2], 480 ± 43 µM. Consider B2, for which the Kd in data set [3] turned out to be 215 ± 35 µM. Take B3: in data set [4], the stoichiometry N (as a rule, a count of units in the complex or per binding partner) was 6.
